Data from US20130022590A1, “Compositions Comprising Zinc Finger Domains and Uses Therefor” (priority 2009, published 2013).

Tests used:
[1] = system: 5′ splice site from exon 3 of the Tra2β minigene (CUCUGAAUCUAGGUAAGAAAG); experiment: Surface plasmon resonance competition binding; settings: 750 nM F12, 1 molar equivalent competitor RNA; compared with exons 1 and 2
Procedure: Competition binding experiments were carried out by flowing a solution of F12 over a streptavidin chip coated with a biotinylated ssRNA oligonucleotide (containing the sequence AGGUAA) in the presence of an unlabeled competitor oligonucleotide.
Binding experiments were performed in triplicate at 25° C. on a BIACORE 3000 (Biacore). A 5′ biotin-labeled RNA oligonucleotide containing the 5′ splice site from exon 3 of the Tra2β minigene ([…]; SEQ ID NO: 29) was purified by size exclusion chromatography (Superdex 75), and unlabeled competitor oligonucleotides i.e., GCGAGCGGUACGUAGA from exon 1 (SEQ ID NO: 30), AGGAAUAAGUGAAGCUG from exon 2 (SEQ ID NO: 31), and […] from exon 3 (SEQ ID NO: 32) were used without further purification. Protein and RNA samples were dialysed into 10 mM sodium phosphate (pH 7.2), 50 mM NaCl, 1 mM DTT, and 0.005% NP20 and filtered. The biotinylated RNA was heated to 65° C. for 5 min, cooled on ice, and then immobilized onto a streptavidin-coated sensor chip to a total of approximately 160 relative units. Solutions of 750 nM F12 in the presence of 1 molar equivalent of each competitor RNA were injected in random order over the sensor chip (at a flow rate of 20 μL/min for 120 sec) and allowed to undergo a 120-sec dissociation time; a further 300-sec interval was allowed between injections. Data were analyzed by using BIA Evaluation software (Biacore). […]

[2] = system: ssRNA containing two AGGUAA sites (AGGUAAAGGUAA, SEQ ID NO: 26); experiment: Fluorescence anisotropy titration, double-site ssRNA; format: binding
Procedure: Fluorescence Anisotropy titrations e.g., as shown in FIGS. 1D-F, 8 and 35, were carried out using standard protocols. In brief, 5′-Fluorescein-labeled RNA oligonucleotides were quantified by A260, correcting for fluorescein absorbance by using A493. For single-site experiments, the sequence GCAACCAGGUAAAGUCU (SEQ ID NO: 28), or single base mutants thereof, was used. For double-site experiments, two AGGUAA sites were separated by different length sequences as indicated, and the total oligonucleotide lengths were kept constant by the symmetrical addition of adenines to each end. The anisotropy titrations were performed with a starting RNA concentration of 50 nM in a buffer comprising either 10 mM Tris (pH 8.0), 50 mM KCl, 5 mM MgCl2, 0.05 mg/mL heparin, and 1 mM DTT (for GST fusion constructs) or 10 mM Mops (pH 7.3), 50 mM NaCl, 0.05 mg/mL heparin, and 1 mM DTT (for ZRANB2-F12). RNasin (Promega) was also added to the protein solution to a concentration of 2 units/μL. Protein was titrated into this starting solution and anisotropy values measured on a Cary Eclipse fluorescence spectrophotometer fitted with manual polarizer and long-pass filters set to 475 and 515 nm for excitation and emission, respectively. Excitation and emission wavelengths were set at 495 and 520 nm, respectively (10-nm slits) and the temperature was maintained at 25° C. by using a block temperature controller. Association constants were determined by nonlinear least squares regression analysis using a 1:1 binding model.
The importance of the spacing between AGGUAA motifs was assessed by measuring binding of F12 to double sites that were separated by −1 to 8 nt (where −1 denotes the sequence AGGUAAGGUAA SEQ ID NO: 33; FIG. 1E, lanes 5-10).

[3] = system: 17-nt RNA oligonucleotide containing a single AGGUAA motif; experiment: Gel shift assay of F12 with 17-nt oligonucleotide; format: binding
Procedure: Gel Shift assays e.g., FIGS. 1B, 32A, were carried out using standard protocols. In brief, oligonucleotides were 5′ end-labelled with T4 polynucleotide kinase and annealed. Binding reactions were set up in a volume of 30 μL and contained a constant concentration of ^32P-labeled probe (0.1 pmol) and increasing concentrations of F12, in a buffer consisting of 10 mM Mops (pH 7.2), 50 mM KCl, 5 mM MgCl2, 1 mM DTT, 0.03 mg/mL heparin, and 5% glycerol. Binding reactions were set up on ice and incubated at 4° C. for 30 min, after which time 15 μL of each sample was loaded onto a prerun 8% native polyacrylamide gel made up in 0.5× Tris-borate buffer, and electrophoresed (250V, 1 h, 4° C.). The oligonucleotide sequence used for gel shift experiments was GCAACCAGGUAAAGUCU (SEQ ID NO: 28); the site was mutated by changing the central GGU to CUG.
To determine whether the AGGUAA motif was sufficient for binding, the binding of the double finger construct F12 to a 17-nt RNA oligonucleotide containing a single AGGUAA motif was tested as described in Section 1.4 above with dsDNA, ssDNA, and dsRNA also tested as controls.

[4] = system: ssRNA pool containing a randomized 25-nt sequence; experiment: SELEX in vitro site selection; format: binding; settings: up to 13 rounds of selection
Procedure: A ZRANB2-F12 SELEX protocol was developed, based on that used by Sakashita E. and Sakamoto H.1994 Acids Res 22:4082-4086. In brief, a library of ssRNA sequences was incubated with GST-F12 on glutathione Sepharose beads, and after washing protein—RNA complexes were eluted with glutathione and the selected RNA was reverse-transcribed and amplified by PCR. Sequencing of selected sequences was carried out after 7, 9, and 13 rounds of selection.
An oligonucleotide harbouring a 25-nucleoride (nt) random sequence surrounded by 2 primer binding sites with an estimated complexity of 1.2×10^12 (sampling complete sequence space for 20-nt sequences) was amplified by 10 rounds of PCR as previously described in Sakashita E., and Sakamoto H.1994 Nucleic Acids Res 22: 4082-4086, then purified by using a QIAquick gel extraction kit (e.g., QIAGEN) according to manufacturer's instructions. RNA was transcribed from 13 pmol of dsDNA template, then extracted with phenol/chloroform and ethanol-precipitated according to established methods in the art. The RNA pellet was resuspended in water […], and unincorporated nucleotides were removed by Sephadex G-25 Quick Spin columns (Roche). RNA was quantified by absorbance at 260 nm.
Binding reactions were carried out in SELEX buffer [10 mM Mops (pH 7.0), 50 mM KCl, 5 mM MgCl2, 5% glycerol, 1 mM DTT, 0.1% Triton, […], Complete protease inhibitor]. […]

B1: F12: F1 and F2 domains, residues 1-95 of human ZRANB2 (protein, UniProt O95218 1-95, looked up, fragment)
chain: MSTKNFRVSDGDWICPDKKCGNVNFARRTSCNRCGREKTTEAKMMKAGGTEIGKTLAEKSRGLFSANDWQCKTCSNVNWARRSECNMCNTPKYAK
modifications: F1-F2 zinc fingers GST fusion in some uses
notes: F1 and F2 domains, residues 1-95 of human ZRANB2
B1 was tested. Which “reduction in binding to the chip by competitor 5′ splice site oligonucleotide of exon 3” value [1] did it give?
The value was “largest reduction in binding”.

And the “effect on binding of scrambling both sites” value ([2]; FIG. 1E, lane 3)?
Its value is “effectively eliminated binding”.

What about the “affinity (association constant) for AGGUAAAGGUAA” value ([2]; FIG. 1E, lane 6) of the same molecule?
Its value is 1.9e+07 M⁻¹.

What about the “affinity for double site with cytosine-rich spacer versus penta-adenine spacer” value ([2]; FIG. 1E, lanes 10 and 8) of the same molecule?
Its value is “same affinity”.

And the “affinity versus spacing between AGGUAA motifs” value ([2]; double sites separated by −1 to 8 nt, adenines inserted)?
Its value is “increased monotonically”.

And the “effect on binding of randomizing one of the AGGUAA motifs” value ([2]; sequence AGAAUGAGGUAA, FIG. 1E, lane 4)?
Its value is “reduced the binding by a small, but reproducible, amount”.

What about the “effect of mutation of the central GGU to CUG” value [3] of the same molecule?
Its value is “abrogated the interaction”.

What about the “nucleic acid type selectivity of the interaction” value ([3]; dsDNA, ssDNA, dsRNA tested as controls) of the same molecule?
Its value is “strongly selective for ssRNA”.

What about the “consensus ssRNA sequence recognized” value [4] of the same molecule?
The value was “AGGUAA(N1-8)AGGUAA”.
